# Assay results reported in patent US20210292413A1 (ACADEMIA SINICA, published 2021).
# B1: SHP-1 (enzyme)
# chain: not shown
# B2: anti-Siglec-3 mAb clone 10C8 (antibody, human IgG1, kappa, V domains shown)
# VH: EVQLVESGGGLVQPGGSLRLSCAASGFTINNGWIHWVRQAPGKGLEWVAGIGPYGGSTFYADSVKGRFTISADTSKNTAYLQMNSLRAEDTAVYYCSRFIGSYSHMDYWGQGTLVTVSS
# VL: DIQMTQSPSSLSASVGDRVTITCRASQDVYYYVAWYQQKPGKAPKLLISSAGGLYSGVPSRFSGSGSGTDFTLTISSLQPEDFATYYCQQYFNFPLTFGQGTKVEIKR
# notes: the isotype control used beside it is IgG1; also called mAb 10C8; antibody 10C8
# Tests used:
# [1] = biological target: T1, human Siglec-3 on cells (moDC, PBMC of CHB patients) (human, UniProt P20138 18-364); experiment: co-IP (IP: Siglec-3) from moDC, lane Mock; Western blot, densitometry [A]
# T1 construct: whole, on cells; also called Siglec-3 receptor
# [2] = biological target: T1, human Siglec-3 on cells (moDC, PBMC of …); experiment: co-IP (IP: Siglec-3) from moDC treated with HBV (hHBV); Western blot, densitometry, fold of Mock [A]
# [3] = biological target: T1, human Siglec-3 on cells (moDC, PBMC of …); experiment: co-IP (IP: Siglec-3) from moDC treated with anti-Siglec-3 mAb 10C8; Western blot, densitometry, fold of Mock [A]
# [4] = biological target: T1, human Siglec-3 on cells (moDC, PBMC of …); experiment: co-IP (IP: Siglec-3) from moDC, HBV +, 10C8 -; Western blot, densitometry, normalized to the untreated control [E]
# [5] = biological target: T1, human Siglec-3 on cells (moDC, PBMC of …); experiment: co-IP (IP: Siglec-3) from moDC, HBV -, 10C8 +; Western blot, densitometry, normalized to the untreated control [E]
# [6] = biological target: T1, human Siglec-3 on cells (moDC, PBMC of …); experiment: co-IP (IP: Siglec-3) from moDC, HBV -, 10C8 -; Western blot, densitometry, normalized to the untreated control [E]
# [7] = biological target: T1, human Siglec-3 on cells (moDC, PBMC of …); experiment: co-IP (IP: Siglec-3) from moDC incubated with hHBV for 0 min; Western blot, densitometry, normalized to the starting point [E]
# [8] = biological target: T1, human Siglec-3 on cells (moDC, PBMC of …); experiment: co-IP (IP: Siglec-3) from moDC incubated with hHBV for 15 min; Western blot, densitometry, normalized to the starting point [E]
# [9] = biological target: T1, human Siglec-3 on cells (moDC, PBMC of …); experiment: co-IP (IP: Siglec-3) from moDC incubated with hHBV for 30 min; Western blot, densitometry, normalized to the starting point [E]
# [10] = biological target: T1, human Siglec-3 on cells (moDC, PBMC of …); experiment: co-IP (IP: Siglec-3) from moDC incubated with hHBV for 60 min; Western blot, densitometry, normalized to the starting point [E]
# [11] = biological target: T1, human Siglec-3 on cells (moDC, PBMC of …); experiment: co-IP (IP: Siglec-3) from moDC incubated 30 mins with 0 copies/mL hHBV; Western blot, densitometry, normalized to the first lane [F]
# [12] = biological target: T1, human Siglec-3 on cells (moDC, PBMC of …); experiment: co-IP (IP: Siglec-3) from moDC incubated 30 mins with 10^8 copies/mL hHBV; Western blot, densitometry, normalized to the first lane [F]
# [13] = biological target: T1, human Siglec-3 on cells (moDC, PBMC of …); experiment: co-IP (IP: Siglec-3) from moDC incubated 30 mins with 10^9 copies/mL hHBV; Western blot, densitometry, normalized to the first lane [F]
# [14] = biological target: T1, human Siglec-3 on cells (moDC, PBMC of …); experiment: co-IP (IP: Siglec-3) from moDC incubated 30 mins with 3x10^8 copies/mL hHBV; Western blot, densitometry, normalized to the first lane [F]
# [15] = biological target: T1, human Siglec-3 on cells (moDC, PBMC of …); experiment: co-IP (IP: Siglec-3) from moDC treated with anti-Siglec-3 mAb 2B9; Western blot, densitometry, fold of Mock; strong band at the 72 mark [A]
# [16] = biological target: T1, human Siglec-3 on cells (moDC, PBMC of …); experiment: co-IP (IP: Siglec-3) from moDC, HBV +, 10C8 + (10C8 given 1 hour before HBV); Western blot, densitometry, normalized to the untreated control [E]
# [17] = biological target: T1, human Siglec-3 on cells (moDC, PBMC of …); experiment: flow cytometry on moDC with APC-conjugated anti-Siglec-3 mAb
# T1 sequence (P20138 18-364): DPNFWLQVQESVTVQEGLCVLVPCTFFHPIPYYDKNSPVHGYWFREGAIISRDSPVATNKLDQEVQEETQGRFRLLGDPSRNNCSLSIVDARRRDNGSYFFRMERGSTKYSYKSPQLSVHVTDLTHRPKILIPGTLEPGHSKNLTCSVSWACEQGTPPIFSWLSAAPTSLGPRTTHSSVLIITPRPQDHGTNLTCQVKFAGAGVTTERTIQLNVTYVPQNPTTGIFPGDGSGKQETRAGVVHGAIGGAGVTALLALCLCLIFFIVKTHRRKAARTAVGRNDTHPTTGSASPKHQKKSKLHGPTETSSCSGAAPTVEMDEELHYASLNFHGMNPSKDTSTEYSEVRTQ
Binder,fold change of SHP-1 co-precipitated with Siglec-3 [1],fold change of SHP-1 co-precipitated with Siglec-3 [2],fold change of SHP-1 co-precipitated with Siglec-3 [3],fold change of SHP-1 co-precipitated with Siglec-3 [4],fold change of SHP-1 co-precipitated with Siglec-3 [5],fold change of SHP-1 co-precipitated with Siglec-3 [6],fold change of SHP-1 co-precipitated with Siglec-3 [7],fold change of SHP-1 co-precipitated with Siglec-3 [8],fold change of SHP-1 co-precipitated with Siglec-3 [9],fold change of SHP-1 co-precipitated with Siglec-3 [10],fold change of SHP-1 co-precipitated with Siglec-3 [11],fold change of SHP-1 co-precipitated with Siglec-3 [12],fold change of SHP-1 co-precipitated with Siglec-3 [13],fold change of SHP-1 co-precipitated with Siglec-3 [14],fold change of SHP-1 co-precipitated with Siglec-3 [15],fold change of SHP-1 co-precipitated with Siglec-3 [16],binding result [17]
B1,1 fold,2.4 fold,1.3 fold,10 fold,1.3 fold,1 fold,1 fold,9.1 fold,26 fold,11 fold,1 fold,1.5 fold,14 fold,7.7 fold,36 fold,1.2 fold,
B2,,,,,,,,,,,,,,,,,binds
